# In patent US8173604 (ALBERT EINSTEIN COLLEGE OF MEDICINE OF YESHIVA UNIVERSITY, dated 2012):
# Residue numbers refer to the chain shown, from its start.
# B1: Skp2LRR (C-terminal fragment of Skp2 divided at residue 150) (other)
# chain: TLDLTGKNLHPDVTGRLLSQGVIAFRCPRSFMDQPLAEHFSPFRVQDMDLSNSVIEVSTLHGILSQCSKLQNLSLELRLSDPIVNTLAKNSNLVRLNLPGCPGFPKFPLQTFLSSCPRLDELNLSWCFNFTEKHVQVAVAHVSETMTQLNLSGYRKNLQKSDLSTLVRRCPNLVHLDLSNSVMLKNDCFQEFSQLNYLQHLSLSRCYDIIPETLLELGEIPTLKTLQVFGIVPDGTLQLLKEALPHLQINCSHFTTIARPTIGNKKNQEIWGIKCRLTLQKPSCL
# notes: also called LRR fragment
# B2: Skp2NF (N-terminal fragment of Skp2 divided at residue 150) (other)
# chain: MHVFKTPGPADAMHRKHLQEIPDLSSNVATSFTWGWDSSKTSELLSGMGVSALEKEEPDSENIPQELLSNLGHPESPPRKRLKSKGSDKDFVIVRRPKLNRENFPGVSWDSLPDELLLGIFSCLCLPELLKVSGVCKRWYRLASDESLWQ
# notes: also called NF fragment
# B3: Skp2N (eluted, GST cleaved off by thrombin) (other)
# chain: MHVFKTPGPADAMHRKHLQEIPDLSSNVATSFTWGWDSSKTSELLSGMGVSALEKEEPDSENIPQELLSNLGHPESPPRKRLKSKGSDKDFVIVRRPKLN
# notes: also called eluted and GST cleaved Skp2N; Skp2 N-terminus
# B4: GST-Skp2N (Skp2 N-terminus cloned into pGEX-2T) (other)
# chain: B3 chain
# notes: not shown: glutathione S-transferase (GST) moiety of vector pGEX-2T, N-terminal fusion partner
# B5: GST-Skp2N-AA45 (other)
# chain: B3 chain with L44A, L45A
# notes: as for B4
# B6: GST-Skp2N-AAA53 (other)
# chain: B3 chain with S51A, L53A
# notes: Residue 52 is already alanine; not shown: glutathione S-transferase (GST) moiety of vector pGEX-2T, N-terminal fusion partner
# B7: Skp2AAAA (full-length Skp2 with the four conserved residues of the 40-60 sequence mutated to alanine, flag tagged) (other)
# chain: MHVFKTPGPADAMHRKHLQEIPDLSSNVATSFTWGWDSSKTSEAASGMGVAAAEKEEPDSENIPQELLSNLGHPESPPRKRLKSKGSDKDFVIVRRPKLNRENFPGVSWDSLPDELLLGIFSCLCLPELLKVSGVCKRWYRLASDESLWQTLDLTGKNLHPDVTGRLLSQGVIAFRCPRSFMDQPLAEHFSPFRVQDMDLSNSVIEVSTLHGILSQCSKLQNLSLELRLSDPIVNTLAKNSNLVRLNLPGCPGFPKFPLQTFLSSCPRLDELNLSWCFNFTEKHVQVAVAHVSETMTQLNLSGYRKNLQKSDLSTLVRRCPNLVHLDLSNSVMLKNDCFQEFSQLNYLQHLSLSRCYDIIPETLLELGEIPTLKTLQVFGIVPDGTLQLLKEALPHLQINCSHFTTIARPTIGNKKNQEIWGIKCRLTLQKPSCL
# notes: also called Skp2AAAA mutant; flag tagged Skp2AAAA; not shown: flag tag
# What was measured:
# [1] = biological target: T1, myc tagged cyclin A (expressed alone or cotransfected in 293T cells) (UniProt P20248 1-432); experiment: cotransfection, IP-Western in 293T cells (FIG. 1A)
# T1 construct: domain: full-length; also called myc-cyclin A; cyclin A alone; not shown: myc tag
# [2] = biological target: cellular cyclin A (endogenous, U2OS cells; associated with Cdk2) (human, UniProt P20248 1-432); experiment: cell-based or functional assay
# [3] = biological target: T2, insect cell-produced and purified GST-cyclin A/Cdk2 (kinase reactions, ~3 nM) (UniProt P20248 1-432; P24941 1-298); experiment: kinase inhibition: purified proteins, ~3 nM GST-cyclin A/Cdk2, Rb-C phosphorylation, non-linear least squares (FIG. 7F)
# [4] = biological target: T2, insect cell-produced and purified …; experiment: cell-based or functional assay
# [5] = biological target: cyclin D1/Cdk4 (transfected 293T cell extracts) (UniProt P24385 1-295; P11802 1-303); experiment: GST pull-down with transfected 293T extracts (FIG. 4E)
# cyclin D1/Cdk4 (transfected 293T cell extracts), sequence (P24385 whole entry, chain 1 of 2): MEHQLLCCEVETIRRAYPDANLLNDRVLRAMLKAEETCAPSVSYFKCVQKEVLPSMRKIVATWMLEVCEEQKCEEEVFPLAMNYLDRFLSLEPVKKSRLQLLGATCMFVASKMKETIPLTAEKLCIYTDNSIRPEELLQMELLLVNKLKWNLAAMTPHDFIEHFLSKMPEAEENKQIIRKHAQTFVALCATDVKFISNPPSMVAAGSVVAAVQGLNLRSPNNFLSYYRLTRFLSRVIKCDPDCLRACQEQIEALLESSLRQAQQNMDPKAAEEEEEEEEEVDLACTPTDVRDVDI
# cyclin D1/Cdk4 (transfected 293T cell extracts), sequence (P11802 whole entry, chain 2 of 2): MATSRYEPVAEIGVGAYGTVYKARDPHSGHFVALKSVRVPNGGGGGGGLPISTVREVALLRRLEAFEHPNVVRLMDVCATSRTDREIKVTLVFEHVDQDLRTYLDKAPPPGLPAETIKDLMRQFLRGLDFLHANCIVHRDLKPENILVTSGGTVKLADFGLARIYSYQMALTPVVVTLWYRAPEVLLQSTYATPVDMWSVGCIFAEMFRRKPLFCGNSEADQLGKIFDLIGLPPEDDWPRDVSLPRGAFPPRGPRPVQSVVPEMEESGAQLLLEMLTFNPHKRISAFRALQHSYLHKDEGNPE
# [6] = biological target: Cdk2 alone (singly transfected 293T cell extract) (UniProt P24941 1-298); experiment: GST pull-down with singly transfected 293T extracts (FIG. 4A)
# [7] = biological target: T3, cyclin A 309-432 fragment (C-terminal cyclin-fold and the C-terminus) (UniProt P20248 309-432); experiment: GST pull-down with transfected 293T extracts (FIG. 4C)
# T3 construct: In transfected 293T cell extract; not shown: myc tag
# [8] = biological target: myc-cyclin A/Cdk2 (293T cell extracts transfected with myc-cyclin A and Cdk2) (UniProt P20248 1-432; P24941 1-298); experiment: GST pull-down with myc-cyclin A/Cdk2 transfected 293T extracts (FIG. 3C)
# [9] = biological target: T1, myc tagged cyclin A (expressed alone or …); experiment: IP-Western with transfected 293T cell extracts (FIG. 1E)
# [10] = biological target: T4, Skp1, Cul-1 and myc-Roc1 (SCF subunits co-expressed with flag-Skp2 in 293T cells) (UniProt P63208 1-163; Q13616 1-776; P62877 1-108); experiment: co-expression in 293T cells, anti-flag IP-Western (FIG. 2A)
# T4 construct: The three other subunits of the SCF complex, co-immunoprecipitated via the flag tag on Skp2; also called Skp1-Cul1-Roc1; SCF^Skp2Roc1 complex subunits; not shown: myc tag
# T4 sequence (P63208 whole entry, chain 1 of 3): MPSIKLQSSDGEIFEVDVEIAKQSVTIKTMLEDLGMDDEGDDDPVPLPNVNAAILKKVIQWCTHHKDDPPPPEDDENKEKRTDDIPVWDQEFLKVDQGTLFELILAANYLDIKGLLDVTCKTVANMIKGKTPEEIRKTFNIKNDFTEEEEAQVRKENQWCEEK
# T4 sequence (Q13616 whole entry, chain 2 of 3): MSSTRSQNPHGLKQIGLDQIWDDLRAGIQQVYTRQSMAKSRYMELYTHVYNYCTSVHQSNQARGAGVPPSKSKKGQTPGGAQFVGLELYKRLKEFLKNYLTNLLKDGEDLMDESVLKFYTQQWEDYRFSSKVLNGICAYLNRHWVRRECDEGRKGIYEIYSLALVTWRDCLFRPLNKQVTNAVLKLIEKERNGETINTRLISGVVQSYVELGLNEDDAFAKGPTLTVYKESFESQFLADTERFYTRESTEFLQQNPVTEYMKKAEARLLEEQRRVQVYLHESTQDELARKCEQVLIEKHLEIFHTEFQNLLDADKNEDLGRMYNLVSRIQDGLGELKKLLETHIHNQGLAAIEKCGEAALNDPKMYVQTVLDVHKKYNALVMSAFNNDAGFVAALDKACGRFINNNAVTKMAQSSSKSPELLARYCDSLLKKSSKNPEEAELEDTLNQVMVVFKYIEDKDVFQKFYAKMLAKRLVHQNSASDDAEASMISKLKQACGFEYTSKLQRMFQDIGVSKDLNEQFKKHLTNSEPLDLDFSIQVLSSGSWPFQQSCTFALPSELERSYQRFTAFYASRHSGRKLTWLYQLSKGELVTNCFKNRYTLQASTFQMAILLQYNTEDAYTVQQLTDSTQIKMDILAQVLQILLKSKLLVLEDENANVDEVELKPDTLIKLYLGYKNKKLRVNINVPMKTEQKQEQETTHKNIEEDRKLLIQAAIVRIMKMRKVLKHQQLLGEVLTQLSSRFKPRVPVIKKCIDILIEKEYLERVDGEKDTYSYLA
# T4 sequence (P62877 whole entry, chain 3 of 3): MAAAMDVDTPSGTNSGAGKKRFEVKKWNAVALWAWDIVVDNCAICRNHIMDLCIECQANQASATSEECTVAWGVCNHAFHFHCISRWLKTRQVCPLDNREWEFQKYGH
binder,measurement,setting,value
B1,binding result,[1],no binding
B2,binding result,[1],binds
YGRKKRRQRRRGKTSELLSGMGVSALEKEE [TAT-4060 peptide (HIV TAT domain fused to the 4060 peptide with a glycine linker)],"IC50 of U2OS cell killing (MTS assay, 24 hours)",[2],35 µM
B3,Ki,[3],~0.52 µM
same,Ki of p27 for cyclin A/Cdk2 kinase activity (Rb-C phosphorylation) in the presence of 80 nM of Skp2N,[4],~0.08 µM
B4,binding result,[5],no binding
same,binding result,[6],no binding
same,binding result,[7],no binding
B5,binding result,[8],no binding
B6,binding result,[8],no binding
YGRKKRRQRRRGPVKRRLDL [TAT-LDL peptide (TAT fused to the E2F1-derived LDL peptide)],in vitro cyclin A/Cdk2 kinase activity towards GST-Rb-C,[4],10 fold
same,"IC50 of U2OS cell killing (MTS assay, 24 hours)",[2],7.5 µM
B7,binding result,[9],no binding
same,binding result,[10],binds
